This is an account of results in IntAct's records for PubMed 36931259.

B1: 14-3-3 protein sigma (Homo sapiens), P31947 (parent)
chain: MERASLIQKAKLAEQAERYEDMAAFMKGAVEKGEELSCEERNLLSVAYKNVVGGQRAAWRVLSSIEQKSNEEGSEEKGPEVREYREKVETELQGVCDTVLGLLDSHLIKEAGDAESRVFYLKMKGDYYRYLAEVATGDDKKRIIDSARSAYQEAMDISKKEMPPTNPIRLGLALNFSVFHYEIANSPEEAISLAKTTFDEAMADLHTLSEDSYKDSTLIMQLLRDNLTLWTADNAGEEGGEAPQEPQS
partner: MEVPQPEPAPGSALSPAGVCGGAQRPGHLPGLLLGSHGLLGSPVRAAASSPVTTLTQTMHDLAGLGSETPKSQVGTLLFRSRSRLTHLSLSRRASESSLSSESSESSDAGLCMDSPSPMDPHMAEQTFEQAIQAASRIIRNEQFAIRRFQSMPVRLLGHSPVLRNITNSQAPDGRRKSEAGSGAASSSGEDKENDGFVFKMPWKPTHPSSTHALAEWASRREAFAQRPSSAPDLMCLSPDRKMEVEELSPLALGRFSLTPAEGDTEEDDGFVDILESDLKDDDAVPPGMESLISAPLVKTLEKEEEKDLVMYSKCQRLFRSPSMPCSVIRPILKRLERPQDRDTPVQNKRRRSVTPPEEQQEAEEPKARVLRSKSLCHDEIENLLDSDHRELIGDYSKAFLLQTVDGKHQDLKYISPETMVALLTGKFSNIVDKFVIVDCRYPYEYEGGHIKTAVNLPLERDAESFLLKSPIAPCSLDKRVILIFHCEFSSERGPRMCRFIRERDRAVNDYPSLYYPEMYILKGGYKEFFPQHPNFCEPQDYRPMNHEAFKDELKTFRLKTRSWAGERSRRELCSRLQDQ
B2: 14-3-3 protein sigma (Homo sapiens), P31947 (parent)
chain: B1 chain
partner: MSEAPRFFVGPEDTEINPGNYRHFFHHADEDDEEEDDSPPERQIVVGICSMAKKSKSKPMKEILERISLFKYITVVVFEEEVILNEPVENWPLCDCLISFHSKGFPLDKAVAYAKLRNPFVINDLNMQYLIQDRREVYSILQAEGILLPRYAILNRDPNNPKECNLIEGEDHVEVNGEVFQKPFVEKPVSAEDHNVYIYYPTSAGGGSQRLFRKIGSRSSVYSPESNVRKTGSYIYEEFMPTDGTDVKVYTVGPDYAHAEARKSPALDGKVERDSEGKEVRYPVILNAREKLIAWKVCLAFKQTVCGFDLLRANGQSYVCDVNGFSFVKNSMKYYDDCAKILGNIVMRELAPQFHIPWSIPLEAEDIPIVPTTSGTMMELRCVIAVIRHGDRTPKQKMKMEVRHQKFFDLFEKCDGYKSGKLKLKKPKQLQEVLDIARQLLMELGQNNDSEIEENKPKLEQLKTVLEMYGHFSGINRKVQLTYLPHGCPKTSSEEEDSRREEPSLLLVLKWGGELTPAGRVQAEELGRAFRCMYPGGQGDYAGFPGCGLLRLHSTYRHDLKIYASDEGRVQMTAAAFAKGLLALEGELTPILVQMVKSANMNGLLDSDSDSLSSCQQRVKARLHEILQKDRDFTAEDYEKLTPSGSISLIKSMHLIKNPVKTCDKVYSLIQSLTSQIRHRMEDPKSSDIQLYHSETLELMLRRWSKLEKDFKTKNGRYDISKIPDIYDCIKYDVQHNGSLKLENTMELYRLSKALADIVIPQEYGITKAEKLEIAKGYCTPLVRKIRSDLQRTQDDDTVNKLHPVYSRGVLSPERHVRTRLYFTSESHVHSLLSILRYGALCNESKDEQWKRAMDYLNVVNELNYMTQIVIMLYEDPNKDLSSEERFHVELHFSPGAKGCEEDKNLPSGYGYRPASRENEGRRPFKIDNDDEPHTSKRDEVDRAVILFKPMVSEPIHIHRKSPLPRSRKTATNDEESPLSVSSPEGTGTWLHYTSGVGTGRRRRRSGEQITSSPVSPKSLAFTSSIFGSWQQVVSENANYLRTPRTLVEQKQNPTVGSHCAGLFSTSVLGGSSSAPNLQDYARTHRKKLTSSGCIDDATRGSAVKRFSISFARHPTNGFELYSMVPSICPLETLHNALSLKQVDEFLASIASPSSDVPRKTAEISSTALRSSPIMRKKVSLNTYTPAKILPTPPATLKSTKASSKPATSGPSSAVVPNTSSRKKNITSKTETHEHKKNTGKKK
B3: 14-3-3 protein sigma (Homo sapiens), P31947 (parent)
chain: B1 chain
partner: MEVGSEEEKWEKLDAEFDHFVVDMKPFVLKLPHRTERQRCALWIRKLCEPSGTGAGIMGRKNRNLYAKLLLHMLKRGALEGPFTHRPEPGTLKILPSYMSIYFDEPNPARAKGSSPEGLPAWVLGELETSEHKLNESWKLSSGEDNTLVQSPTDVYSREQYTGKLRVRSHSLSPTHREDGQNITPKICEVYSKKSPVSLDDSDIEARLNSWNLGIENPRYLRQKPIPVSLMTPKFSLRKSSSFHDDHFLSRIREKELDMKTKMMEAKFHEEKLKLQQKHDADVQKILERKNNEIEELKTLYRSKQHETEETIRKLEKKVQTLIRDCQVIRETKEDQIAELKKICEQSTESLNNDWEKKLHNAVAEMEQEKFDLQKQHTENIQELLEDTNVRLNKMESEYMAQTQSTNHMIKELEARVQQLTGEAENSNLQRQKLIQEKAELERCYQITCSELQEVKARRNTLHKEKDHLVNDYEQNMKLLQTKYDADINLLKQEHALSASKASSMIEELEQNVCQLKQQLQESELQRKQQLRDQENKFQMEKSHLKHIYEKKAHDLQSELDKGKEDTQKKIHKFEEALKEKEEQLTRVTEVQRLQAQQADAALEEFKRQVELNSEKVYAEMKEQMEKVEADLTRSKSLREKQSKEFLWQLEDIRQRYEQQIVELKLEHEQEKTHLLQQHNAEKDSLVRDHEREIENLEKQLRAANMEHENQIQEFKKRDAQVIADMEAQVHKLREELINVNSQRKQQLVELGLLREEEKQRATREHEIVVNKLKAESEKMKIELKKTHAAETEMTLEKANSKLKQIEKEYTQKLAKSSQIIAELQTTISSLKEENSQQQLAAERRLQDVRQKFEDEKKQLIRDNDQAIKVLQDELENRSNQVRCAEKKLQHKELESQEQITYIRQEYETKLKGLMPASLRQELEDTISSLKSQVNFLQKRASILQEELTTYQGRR

One assay covers variants of B1. Particulars: with mpip2_human CDC25B.
Take MERASLIQKAKLAEQAERYEDMAAFMKGAVEKGEELSCEERNLLSVAYENVVGGQEAAWRVLSSIEQKSNEEGSEEKGPEVREYREKVETELQGVCDTVLGLLDSHLIKEAGDAESRVFYLKMKGDYYRYLAEVATGDDKKRIIDSARSAYQEAMDISKKEMPPTNPIRLGLALNFSDFHYEIANSPEEAISLAKTTFDEAMADLHTLSEDSYKDSTLIMQLLRDNLTLWTADNAGEEGGEAPQEPQS [K49E;R56E;V178D]: the “effect of a mutation on the interaction” value is “decreasing interaction strength”.

Another assay covers variants of B2. Particulars: with vip2_human PPIP5K2, O43314.
On to MERASLIQKAKLAEQAERYEDMAAFMKGAVEKGEELSCEERNLLSVAYENVVGGQEAAWRVLSSIEQKSNEEGSEEKGPEVREYREKVETELQGVCDTVLGLLDSHLIKEAGDAESRVFYLKMKGDYYRYLAEVATGDDKKRIIDSARSAYQEAMDISKKEMPPTNPIRLGLALNFSDFHYEIANSPEEAISLAKTTFDEAMADLHTLSEDSYKDSTLIMQLLRDNLTLWTADNAGEEGGEAPQEPQS [K49E;R56E;V178D], for which the “effect of a mutation on the interaction” value was “decreasing interaction strength”.

Variants of B3 are the subject of another assay. The following applies: with ce112_human CEP112, Q8N8E3.
Regarding MERASLIQKAKLAEQAERYEDMAAFMKGAVEKGEELSCEERNLLSVAYENVVGGQEAAWRVLSSIEQKSNEEGSEEKGPEVREYREKVETELQGVCDTVLGLLDSHLIKEAGDAESRVFYLKMKGDYYRYLAEVATGDDKKRIIDSARSAYQEAMDISKKEMPPTNPIRLGLALNFSDFHYEIANSPEEAISLAKTTFDEAMADLHTLSEDSYKDSTLIMQLLRDNLTLWTADNAGEEGGEAPQEPQS [K49E;R56E;V178D], the “effect of a mutation on the interaction” value is given as “decreasing interaction strength”.
